US20210317225A1 (Genmab, published 2021)

What was measured:
[1] = target: T1, Human CD137 shuffle 6 (amino acids 24-47 replaced by wild boar CD137) (human, amino acids 24-47 from wild boar, UniProt Q07011 26-200); assay: flow cytometry on transfected HEK293T-17 cells
T1 construct: also called shuffle construct 6
T1 chain: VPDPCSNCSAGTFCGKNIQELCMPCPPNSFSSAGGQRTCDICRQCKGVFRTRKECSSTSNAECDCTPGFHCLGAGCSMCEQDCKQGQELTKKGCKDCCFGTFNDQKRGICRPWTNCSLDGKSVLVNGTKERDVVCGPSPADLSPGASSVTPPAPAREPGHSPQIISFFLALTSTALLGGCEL
Experimental: (§1) 3×10⁶ HEK293T-17 cells were seeded in T75 culture flasks (Greiner Bio-One, cat. no. 658175) in 20 mL RPMI 1640 GlutaMAX medium containing 10% FCS (Biochrom, cat. no. S 0115). After O/N incubation, cells were transiently […] with expression vectors encoding the shuffle constructs or the wild boar, African elephant or human CD137 downstream of a constitutively active human elongation factor-1 alpha (EF-1 alpha) promotor using TransIT®-LT1 Transfection Reagent, Mirus Bio (VWR International, cat. no. 731-0029), according to the manufacturer's instructions. The next day, cells were harvested using 1.5 mL Accutase (Sigma Aldrich, cat. no. A6964) (incubation at 37° C. for 5 min.) and flow cytometry was performed, essentially as described in Example 4, to measure surface expression of the shuffle constructs and the human, African elephant and wild boar CD137 and to measure binding of the antibody clones to the different shuffle constructs. To measure cell surface expression of the constructs, transduced cells were incubated with 1 μg/mL goat polyclonal anti-human CD137 (R&D Systems, cat. no. AF838) in FACS buffer (D-PBS supplemented with 5 mM EDTA [Sigma Aldrich, cat. no. 03690] and 5% (v/v) fetal bovine serum [FBS, Biochrom, cat. no. S 0115]) (4° C., 20 min.), followed by incubation with APC-labeled anti-goat IgG (H+L) (R&D Systems, cat. no. F0108) (4° C., 20 min.). Binding of the different CD137 antibody clones to cells expressing the shuffle constructs was measured by incubation of the transduced cells with 1 μg/mL of the antibody clones, followed by APC-labeled AffiniPure F(ab′)2 Fragment (1:50 final dilution; Jackson, cat. no. 109-136-127).

Human CD137 (TNR9_Human) = target: T2, Human CD137 (TNR9_Human) (human, UniProt Q07011 24-255); assay: flow cytometry, HEK293-T17 cells transiently transfected with human CD137, antibody at 1 µg/mL, APC-labeled F(ab')2 secondary
T2 construct: Full-length human CD137 expressed on HEK293T-17, NF-kB/293/GFP-Luc or K562 cells, or native on T cells; also called hCD137 wt; 4-1BB
Experimental: FIG. 4: Binding of CD137 antibody clones to CD137 shuffle constructs expressed on HEK293-T17 cells. HEK293-T17 cells were transfected with the CD137 shuffle constructs, and with human CD137 (hCD137 wt), African elephant of wild boar CD137, as indicated. Binding of the different CD137 antibody clones to these constructs expressed on HEK293-T17 cells was measured by flow cytometry. Staining with polyclonal anti-CD137 antibody is shown as a control.
as §1

[2] = target: T3, Human CD137 shuffle 3 (amino acids 115-138 replaced by wild boar CD137) (human, amino acids 115-138 from wild …, UniProt Q07011 24-255); assay: flow cytometry on transfected HEK293T-17 cells, 1 µg/mL antibody
T3 construct: also called shuffle construct 3
T3 chain: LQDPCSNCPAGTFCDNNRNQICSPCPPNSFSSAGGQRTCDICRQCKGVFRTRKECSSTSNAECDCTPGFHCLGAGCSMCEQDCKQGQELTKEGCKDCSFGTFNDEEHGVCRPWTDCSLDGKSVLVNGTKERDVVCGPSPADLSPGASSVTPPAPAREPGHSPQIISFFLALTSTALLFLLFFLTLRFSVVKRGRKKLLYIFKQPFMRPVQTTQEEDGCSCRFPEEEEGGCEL
Experimental: as §1

[3] = target: T4, Human CD137 shuffle 4 (amino acids 89-114 replaced by wild boar CD137) (human, amino acids 89-114 from wild boar, UniProt Q07011 24-255); assay: as above
T4 construct: also called shuffle construct 4
T4 chain: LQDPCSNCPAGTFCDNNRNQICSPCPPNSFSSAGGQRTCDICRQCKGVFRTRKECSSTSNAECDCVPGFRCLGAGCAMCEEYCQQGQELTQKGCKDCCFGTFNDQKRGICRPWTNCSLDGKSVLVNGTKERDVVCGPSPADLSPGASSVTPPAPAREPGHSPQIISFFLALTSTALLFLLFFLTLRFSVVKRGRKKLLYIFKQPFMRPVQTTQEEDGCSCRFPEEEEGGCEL
Experimental: as §1

[4] = target: T5, Human CD137 shuffle 2 (amino acids 139-161 replaced by wild boar CD137) (human, amino acids 139-161 from wild …, UniProt Q07011 24-255); assay: as above
T5 construct: also called shuffle construct 2
T5 chain: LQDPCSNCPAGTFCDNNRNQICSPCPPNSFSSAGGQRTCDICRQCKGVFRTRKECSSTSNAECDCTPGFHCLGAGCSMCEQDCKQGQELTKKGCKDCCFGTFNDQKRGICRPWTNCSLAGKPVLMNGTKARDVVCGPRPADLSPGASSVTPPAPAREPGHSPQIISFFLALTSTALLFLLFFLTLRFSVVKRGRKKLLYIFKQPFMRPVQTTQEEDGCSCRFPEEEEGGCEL
Experimental: as §1

[5] = target: T6, Human CD137 shuffle 1 (amino acids 162-186 replaced by wild boar CD137) (human, amino acids 162-186 from wild …, UniProt Q07011 24-255); assay: as above
T6 construct: also called shuffle construct 1
T6 chain: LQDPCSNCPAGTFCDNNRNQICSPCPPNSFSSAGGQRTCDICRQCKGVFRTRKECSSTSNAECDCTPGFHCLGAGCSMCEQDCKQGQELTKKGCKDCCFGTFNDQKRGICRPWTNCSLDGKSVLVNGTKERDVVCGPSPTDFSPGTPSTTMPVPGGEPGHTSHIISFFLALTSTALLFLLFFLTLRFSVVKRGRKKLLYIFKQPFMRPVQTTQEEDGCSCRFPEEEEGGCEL
Experimental: as §1

[6] = target: T7, Human CD137 shuffle 5 (amino acids 48-88 replaced by African elephant CD137) (human, amino acids 48-88 from African …, UniProt Q07011 24-255); assay: as above
T7 construct: also called shuffle construct 5
T7 chain: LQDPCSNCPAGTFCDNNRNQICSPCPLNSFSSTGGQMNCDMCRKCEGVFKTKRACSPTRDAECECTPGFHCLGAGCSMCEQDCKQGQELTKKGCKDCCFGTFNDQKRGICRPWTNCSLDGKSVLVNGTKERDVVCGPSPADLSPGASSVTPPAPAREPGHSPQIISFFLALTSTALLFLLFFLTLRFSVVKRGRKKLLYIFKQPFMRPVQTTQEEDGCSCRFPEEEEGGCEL
Experimental: as §1

T2 sequence (Q07011 24-255): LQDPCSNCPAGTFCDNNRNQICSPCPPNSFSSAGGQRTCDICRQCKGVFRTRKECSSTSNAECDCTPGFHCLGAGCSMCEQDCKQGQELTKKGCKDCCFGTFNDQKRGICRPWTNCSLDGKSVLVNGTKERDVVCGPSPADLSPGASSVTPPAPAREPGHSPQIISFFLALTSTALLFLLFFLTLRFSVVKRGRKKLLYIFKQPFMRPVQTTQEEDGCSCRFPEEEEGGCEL

binding result [1]: no binding (tested: 1 µg/mL)
binding result (Human CD137 (TNR9_Human)): binds
binding result [2]: binds
binding result [3]: binds
binding result [4]: binds
binding result [5]: binds
binding result [6]: binds
B1: CD137 antibody clone 005 (rabbit) (antibody, human IgG1, kappa, V domains shown)
VH: QSVEESGGRLVTPGTPLTLTCTASGFTISDFHVTWVRQAPGKGLEWIGTIITSASTTAYATWARGRFTISKSSTTVNLKIVSPTTEDTATYFCARSTYTDTSGYYFDFWGQGTLVTVSS
VL: AQVLTQTASPVSAAVGGTVIINCQSSQSIYNGNRLSWYQQKPGQPPKLLIYSASTLASGVSSRFKGSGSGTQFTLAISDVQSDDAATYYCLGSYDCDSADCFAFGGGTEVVVER
notes: also called Clone 5; CD137 clone 005
